In one experiment the target is T1, µ receptor (rat brain) (rat, UniProt P33535 1-398).
T1 construct: whole, on cells; Native receptor in crude rat brain plasma membrane homogenate, not on intact cells; also called µ opioid receptor; opioid receptor
The experiment is described as follows: radioligand competition, [3H]DAMGO on crude rat brain plasma membranes, 4 C, 90 min, filtration. (In general: Loss of bound radioactivity is the signal in a displacement assay; it reports binding, not function.)

The next experiment has as its target T2, NK1 receptor (rat brain) (rat, UniProt P14600 1-407).
T2 construct: whole, on cells; Native receptor in crude rat brain plasma membrane homogenate, not on intact cells; also called SP receptor
The experiment is described as follows: radioligand competition, [125I]BH-SP on crude rat brain plasma membranes, room temperature, 75 min, filtration.

Ends that are not written are not given here.

T2 sequence (P14600 whole entry): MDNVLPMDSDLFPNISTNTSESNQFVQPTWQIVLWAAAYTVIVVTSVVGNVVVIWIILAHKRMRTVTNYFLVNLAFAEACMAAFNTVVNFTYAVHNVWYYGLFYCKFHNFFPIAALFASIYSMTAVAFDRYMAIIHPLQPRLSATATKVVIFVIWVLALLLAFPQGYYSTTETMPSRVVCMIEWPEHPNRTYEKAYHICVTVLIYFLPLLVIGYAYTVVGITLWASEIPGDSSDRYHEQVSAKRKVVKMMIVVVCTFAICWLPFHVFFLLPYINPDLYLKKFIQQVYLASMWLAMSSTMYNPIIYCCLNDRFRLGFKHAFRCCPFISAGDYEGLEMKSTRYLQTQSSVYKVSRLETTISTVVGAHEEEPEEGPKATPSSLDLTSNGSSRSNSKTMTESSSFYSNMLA
T1 sequence (P33535 whole entry): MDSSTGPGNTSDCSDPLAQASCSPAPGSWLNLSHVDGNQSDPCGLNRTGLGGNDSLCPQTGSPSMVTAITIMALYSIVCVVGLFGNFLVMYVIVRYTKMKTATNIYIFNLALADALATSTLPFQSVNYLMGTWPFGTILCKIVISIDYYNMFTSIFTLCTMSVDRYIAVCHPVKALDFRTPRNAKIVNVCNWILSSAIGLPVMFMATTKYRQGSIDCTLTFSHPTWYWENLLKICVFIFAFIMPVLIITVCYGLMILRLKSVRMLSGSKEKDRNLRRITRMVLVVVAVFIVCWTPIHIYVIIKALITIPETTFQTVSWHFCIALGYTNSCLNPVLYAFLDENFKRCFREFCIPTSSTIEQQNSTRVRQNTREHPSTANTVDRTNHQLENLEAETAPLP
Procedure for NK1 receptor (rat brain): (§1) For binding assays to opioid receptors, frozen rat brains (−80° C.) were homogenized in 40 volumes of standard Tris buffer (50 mM Tris HCl (pH 7.4), 0.2 mg/ml BSA, 2.5 mM EDTA, 40 μg/m bacitracin, 30 μg/ml bestatin and 5 mM MgCl₂) and centrifuged at 15,000×g for 20 minutes. 100 mM NaCl was added to the buffer, in order to remove endogenous ligands, and the centrifugation was repeated. After a wash with standard buffer, the membrane preparation was finally resuspended in 10 volumes of incubation buffer (standard buffer with 4 μg/ml leupeptin and 2 μg/ml chymostatin). […] The brain homogenates were used on the day of preparation.
After filtration, the radioactivity was determined on a gamma-counter.
Procedure for µ receptor (rat brain): as §1
After incubation the samples were filtered on a Brandell-Harvester using an appropriate GF/B filter soaked in 50 mM Tris HCl (pH 7A) and 0.5% PEI. Scintillation fluid was added to the filters in order to solubilize the membranes, and a beta-counter was used to quantify radioactivity.

B1: ESP7 (peptide)
peptide: YPFFGLM-NH2
notes: Chimera of endomorphin-2 at the N-terminus and SP(7-11) at the C-terminus; also called chimeric peptide ESP7; Tyr-Pro-Phe-Phe-Gly-Leu-Met-NH2
As for B1, the Kd (usually the constant that tells how readily two partners part at equilibrium) is around 300 nM with µ receptor (rat brain) and around 200 nM with NK1 receptor (rat brain).

Source of the values: patent US20090298755A1 (NEW ENGLAND MEDICAL CENTER HOSPITALS, published 2009).
